Target: GDI.Cdc42 FLARE biosensor, wild type (Cdc42 with an N-terminal FRET binding antenna) (UniProt P60953 1-191)
Assay: FRET or BRET

Chain of GDI.Cdc42 FLARE biosensor, wild type (Cdc42 with an N-terminal FRET binding antenna) (P60953 whole entry): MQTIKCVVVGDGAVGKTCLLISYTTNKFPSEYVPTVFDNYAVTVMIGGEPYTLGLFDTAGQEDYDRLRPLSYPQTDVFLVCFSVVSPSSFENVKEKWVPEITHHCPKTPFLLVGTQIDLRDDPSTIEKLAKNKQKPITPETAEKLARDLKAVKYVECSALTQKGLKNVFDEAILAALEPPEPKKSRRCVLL

B1: RhoGDI1 (RhoGDIα), wild type, unlabeled, co-expressed in excess (natural protein)
chain: MAEQEPTAEQLAQIAAENEEDEHSVNYKPPAQKSIQEIQELDKDDESLRKYKEALLGRVAVSADPNVPNVVVTGLTLVCSSAPGPLELDLTGDLESFKKQSFVLKEGVEYRIKISFRVNREIVSGMKYIQHTYRKGVKIDKTDYMVGSYGPRAEEYEFLTPVEEAPKGMLARGSYSIKSRFTDDDKTDHLSWEWNLTIKKDWKD
- increase in FRET/CFP emission ratio: 218%
